We go through two molecules from article PMC7906951.

The target in one data set is T1, Card1 (Tresu_2185, Cad1) (Treponema succinifaciens, UniProt F2NWD3 1-372).
T1 sequence: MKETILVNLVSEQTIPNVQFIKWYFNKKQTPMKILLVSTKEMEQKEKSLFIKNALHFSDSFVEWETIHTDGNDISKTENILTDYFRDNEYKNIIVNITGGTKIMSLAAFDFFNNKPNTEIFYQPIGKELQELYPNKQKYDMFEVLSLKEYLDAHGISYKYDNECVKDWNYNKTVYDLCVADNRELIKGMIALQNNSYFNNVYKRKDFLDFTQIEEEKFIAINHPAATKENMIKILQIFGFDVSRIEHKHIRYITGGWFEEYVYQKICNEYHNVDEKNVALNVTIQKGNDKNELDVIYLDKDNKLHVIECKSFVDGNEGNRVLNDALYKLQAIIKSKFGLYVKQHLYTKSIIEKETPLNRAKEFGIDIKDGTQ
Kind of data set: ITC.

The next data set addresses T2, Card1 D294N (Treponema succinifaciens, UniProt F2NWD3 1-372, D294N).
T2 sequence: T1 sequence with D294N
In words: crystal structure.

Substitutions are numbered along the chain they refer to.

Broadly, the Kd is the equilibrium constant for the complex coming apart. Higher therefore signals lower affinity.

As for AAAAAA (ssRNA, cyclic 3'-5' oligoadenylate; no free ends) [cA6 (cyclic hexaadenylate)], binding with Card1 (Tresu_2185, Cad1) was characterised by a dissociation constant (Kd) of 78 nM.
On to AAAA (ssRNA, cyclic 3'-5' oligoadenylate; no free ends) [cA4 (cyclic tetraadenylate)], for which, in the data set with Card1 D294N, the binding result was “binds”. The dissociation constant Kd with Card1 (Tresu_2185, Cad1) amounted to 15 nM.
